Measured values from PMC8712213 (Nature, 2020).

Target: ALG6 from Saccharomyces cerevisiae (tag-cleaved) (S. cerevisiae, UniProt Q12001)
Experiment: SEC

Sequence of ALG6 from Saccharomyces cerevisiae (tag-cleaved) (Q12001 whole entry): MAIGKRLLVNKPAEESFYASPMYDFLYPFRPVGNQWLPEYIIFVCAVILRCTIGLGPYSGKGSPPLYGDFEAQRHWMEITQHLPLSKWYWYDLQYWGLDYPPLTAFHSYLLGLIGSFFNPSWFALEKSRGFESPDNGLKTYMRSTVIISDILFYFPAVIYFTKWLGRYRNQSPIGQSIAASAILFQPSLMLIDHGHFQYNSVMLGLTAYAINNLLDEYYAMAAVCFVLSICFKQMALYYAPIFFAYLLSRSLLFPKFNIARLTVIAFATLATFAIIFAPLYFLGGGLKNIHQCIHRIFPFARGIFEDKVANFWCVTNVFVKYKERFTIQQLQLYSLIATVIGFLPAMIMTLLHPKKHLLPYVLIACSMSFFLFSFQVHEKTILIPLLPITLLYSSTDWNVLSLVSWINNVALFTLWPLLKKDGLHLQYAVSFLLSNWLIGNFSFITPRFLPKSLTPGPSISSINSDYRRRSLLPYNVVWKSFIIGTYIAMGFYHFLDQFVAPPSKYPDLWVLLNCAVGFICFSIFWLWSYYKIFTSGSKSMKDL

B1: 6AG9-Fab (Fab, V domains shown)
VH: EVQLVESGGGLVQPGGSLRLSCAASGFNVYSSSIHWVRQAPGKGLEWVASISSYSGYTSYADSVKGRFTISADTSKNTAYLQMNSLRAEDTAVYYCAREYWSWYSYSYGIDYWGQGTLVTVSS
VL: DIQMTQSPSSLSASVGDRVTITCRASQSVSSAVAWYQQKPGKAPKLLIYSASSLYSGVPSRFSGSRSGTDFTLTISSLQPEDFATYYCQQSYWVGYPITFGQGTKVEIK
Q: Does B1 bind?
A: binds
